Results on one protein are retold here after ChEMBL document CHEMBL4627406, “Amino Acids Bearing Aromatic or Heteroaromatic Substituents as a New Class of Ligands for the Lysosomal Sialic Acid Transporter Sialin” (J Med Chem, 2020).

Compound in data set [1]: O=C(N[C@@H](CSCc1cc(=O)oc2cc(O)ccc12)C(=O)O)OCC1c2ccccc2-c2ccccc21
In words: Non-competitive inhibition of human recombinant-Sialin expressed in HEK293 cells assessed as reduction in [3H]Neu5Ac uptake by measuring Km level at 3 uM incubated for 15 mins by liquid scintillation counting method (reference value: 1.4 +/- 0.5 mM).

Compound in data set [2]: CC(C)C[C@H](NC(=O)OCC1c2ccccc2-c2ccccc21)C(=O)O
Description: Non-competitive inhibition of human recombinant-Sialin expressed in HEK293 cells assessed as reduction in [3H]Neu5Ac uptake by measuring Km level at 10 uM incubated for 15 mins by liquid scintillation counting method (reference value: 1.6 +/- 0.3 mM). The data set is classed as cell-based.

By Km is commonly meant the substrate concentration at which the rate is half of its maximum.

B1: Sialin (Homo sapiens), Q9NRA2 (protein)
chain: MRSPVRDLARNDGEESTDRTPLLPGAPRAEAAPVCCSARYNLAILAFFGFFIVYALRVNLSVALVDMVDSNTTLEDNRTSKACPEHSAPIKVHHNQTGKKYQWDAETQGWILGSFFYGYIITQIPGGYVASKIGGKMLLGFGILGTAVLTLFTPIAADLGVGPLIVLRALEGLGEGVTFPAMHAMWSSWAPPLERSKLLSISYAGAQLGTVISLPLSGIICYYMNWTYVFYFFGTIGIFWFLLWIWLVSDTPQKHKRISHYEKEYILSSLRNQLSSQKSVPWVPILKSLPLWAIVVAHFSYNWTFYTLLTLLPTYMKEILRFNVQENGFLSSLPYLGSWLCMILSGQAADNLRAKWNFSTLCVRRIFSLIGMIGPAVFLVAAGFIGCDYSLAVAFLTISTTLGGFCSSGFSINHLDIAPSYAGILLGITNTFATIPGMVGPVIAKSLTPDNTVGEWQTVFYIAAAINVFGAIFFTLFAKGEVQNWALNDHHGHRH
Turning to B1, the Km stood at 1700 µM in data set [1] and 1300 µM in data set [2].
